# Results taken from US6426205 (MOUNT SINAI HOSPITAL, dated 2002).
# T1: Gal4^AD-Cdc4 isolates (budding yeast, UniProt P07834 1-779, limits assumed)
# T1 construct: Library clones; all contained the F-box; also called Cdc4 two hybrid isolates; full length Cdc4 in the two hybrid system
# T1 sequence: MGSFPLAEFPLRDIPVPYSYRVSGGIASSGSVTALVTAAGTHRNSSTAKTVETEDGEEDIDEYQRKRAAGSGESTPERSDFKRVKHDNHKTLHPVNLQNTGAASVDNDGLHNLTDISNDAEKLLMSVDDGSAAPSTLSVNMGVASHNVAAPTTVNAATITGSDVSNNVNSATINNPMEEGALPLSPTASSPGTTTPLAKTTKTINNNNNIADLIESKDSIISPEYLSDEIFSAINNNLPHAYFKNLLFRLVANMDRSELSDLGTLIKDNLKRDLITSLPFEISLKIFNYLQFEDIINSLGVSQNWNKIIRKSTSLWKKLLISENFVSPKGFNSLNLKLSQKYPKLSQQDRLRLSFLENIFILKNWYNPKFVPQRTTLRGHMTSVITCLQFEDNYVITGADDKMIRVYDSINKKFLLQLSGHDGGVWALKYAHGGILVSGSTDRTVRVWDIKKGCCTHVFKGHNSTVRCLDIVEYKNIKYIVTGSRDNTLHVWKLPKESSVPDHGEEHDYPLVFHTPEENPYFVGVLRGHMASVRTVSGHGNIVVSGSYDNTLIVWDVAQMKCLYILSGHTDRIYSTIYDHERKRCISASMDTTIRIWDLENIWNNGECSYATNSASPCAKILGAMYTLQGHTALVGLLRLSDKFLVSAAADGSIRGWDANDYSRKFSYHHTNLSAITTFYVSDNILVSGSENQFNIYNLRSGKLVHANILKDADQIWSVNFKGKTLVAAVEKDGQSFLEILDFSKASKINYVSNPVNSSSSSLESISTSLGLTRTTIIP
# T2: Gal4^AD-Met30 isolates (yeast, UniProt P39014 1-640, limits assumed)
# T2 construct: Library clones; all contained the F-box; also called Met30 two hybrid isolates; full length Met30 in the two hybrid system
# T2 sequence: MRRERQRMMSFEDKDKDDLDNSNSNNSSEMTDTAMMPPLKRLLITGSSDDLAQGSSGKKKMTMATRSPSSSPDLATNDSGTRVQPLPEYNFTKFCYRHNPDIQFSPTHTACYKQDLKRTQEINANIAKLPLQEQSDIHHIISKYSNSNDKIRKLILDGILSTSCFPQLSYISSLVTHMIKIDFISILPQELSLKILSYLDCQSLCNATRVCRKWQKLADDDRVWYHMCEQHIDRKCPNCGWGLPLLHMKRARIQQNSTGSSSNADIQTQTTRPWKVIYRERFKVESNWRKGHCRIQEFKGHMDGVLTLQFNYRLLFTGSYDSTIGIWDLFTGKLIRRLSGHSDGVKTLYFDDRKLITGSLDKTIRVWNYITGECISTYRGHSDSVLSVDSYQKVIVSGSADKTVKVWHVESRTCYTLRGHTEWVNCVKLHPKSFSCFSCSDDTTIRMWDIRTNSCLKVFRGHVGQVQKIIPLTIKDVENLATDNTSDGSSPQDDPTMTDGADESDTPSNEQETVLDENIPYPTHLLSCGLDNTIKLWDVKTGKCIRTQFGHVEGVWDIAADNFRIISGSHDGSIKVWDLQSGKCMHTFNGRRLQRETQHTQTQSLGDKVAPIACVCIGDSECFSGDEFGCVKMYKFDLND
# Key:
# Gal4^AD-Cdc4 isolates = biological target: T1, Gal4^AD-Cdc4 isolates; assay: yeast two-hybrid
# Gal4^AD-Met30 isolates = biological target: T2, Gal4^AD-Met30 isolates; assay: yeast two-hybrid
binder,measurement,setting,value
"Gal4^DBD-Cdc53^ΔN (other, not shown: small tags and cut ends, Made by NcoI digestion and religation; also called pMT954; Cdc53 lacking the N-terminal 280 residues) MALNKVLITDHIEKLENEFVVLLDARDIEKITSLYALIRRDFTLIPRMASVFENYVKKTGENEISSLLAMHKHNIMKNENANPKKLALMTAHSLSPKDYIKKLLEVHDIFSKIFNESFPDDIPLAKALDNACGAFININEFALPAGSPKSATSKTSEMLAKYSDILLKKATKPEVASDMSDEDIITIFKYLTDKDAFETHYRRLFAKRLIHGTSTSAEDEENIIQRLQAANSMEYTGKITKMFQDIRLSKILEDDFAVALKNEPDYSKAKYPDLQPFVLAENMWPFSYQEVEFKLPKELVPSHEKLKESYSQKHNGRILKWLWPLCRGELKADIGKPGRMPFNFTVTLFQMAILLLYNDADVLTLENIQEGTSLTIQHIAAAMVPFIKFKLIQQVPPGLDALVKPETQFKLSRPYKALKTNINFASGVKNDILQSLSGGGHDNHGNKLGNKRLTEDERIEKELNTERQIFLEACIVRIMKAKRNLPHTTLVNECIAQSHQRFNAKVSMVKRAIDSLIQKGYLQRGDDGESYAYLA",binding result,Gal4^AD-Cdc4 isolates,no binding
same,binding result,Gal4^AD-Met30 isolates,no binding
